The source of these data is the DeepSol protein solubility set.

The nature of this data set: soluble on expression in E. coli; label from the status in PepcDB or PDB records.
For “AAAMVPGRSESWERGEPGRPALYFCGSIRGGREDRTLYERIVSRLRRFGTVLTEHVAAAELGARGEEAAGGDRLIHEQDLEWLQQADVVVAEVTQPSLGVGYELGRAVAFNKRILCLFRPQSGRVLSAMIRGAADGSRFQVWDYEEGEVEALLDRYFEADPPGQV”, the “soluble on expression in E. coli” value is “not soluble”.

With “AACKFLRRKCTSDCVFAPYFPPEEPTKFANVHRIFGASNVSKILHEVAPHQREDAVNSLAYEAEARLKDPVYGCVGAISVLQRQVLRLQRELEETNADLMRYAGCLGGETTSAYGGRRG”, the “soluble on expression in E. coli” value was “not soluble”. For “AAKRMKKRIKSATFFTTLLDFSQPGEVGAYINDTIISAIETQNNAKGYMDGRSLSVTFSLLRENSLYWNYYVDNYLKGNSPVDFDLLYWNSDSTNVSAASHNFLLRELYLENKLVQDKGVKIGGVWIDLNKIKIPSYFVSTKEDHIALWQGTYRGALHTGGNKTFVLGESGHIAGIVNHPAKNKYGYWLNDTLDDS” the value was “not soluble”; for “ADCSSDLTSGISTKRIYYVAPNGNSSNNGSSFNAPMSFSAAMAAVNPGELILLKPGTYTIPYTQGKGNTITFNKSGKDGAPIYVAAANCGRAVFDFSFPDSQWVQASYGFYVTGDYWYFKGVEVTRAGYQGAYVIGSHNTFENTAFHHNRNTGLEINNGGSYNTVINSDAYRNYDPKKNGSMADGFGPKQKQGPGNRFVGCRAWENSDDGFDLFDSPQKVVIENSWAFRNGINYWNDSAFAGNGNGFKLGGNQAVGNHRITRSVAFGNVSKGFDQNNNAGGVTVINNTSYKNGINYGFGSNVQSGQKHYFRNNVSLSASVTVSNADAKSNSWDTGPAASASDFVSLDTSLATVSRDNDGTLPETSLFRLSANSKLINAGTKESNISYSGSAPDLGAFERN”, “soluble”; for “ADEVAQTLAKVLTESSMPRENLLLSSFSHDVIRALYQHCEGYRLGVLSEFFTKKDGLLLDEVKAYSCNLNINWVRSRQIIKLQEAGYKVMCYTVNNPNKLKHLPQLDGIFSDHPKRFMQ”, “not soluble”. For “AEDIFGELFNEANNFYIRANSLQDRIDRLAVKVTQLDSTVEEVSLQDINMKKAFKSSTVQDQQVVSKNSIPNPVADIYNQSDKPPPLNILTPYRDDKKDGLKFYTDPSYFFDLWKEKMLQDTEDKRKEKRRQKEQKRIDGTTREVKKVRKARNRRQEWNMMAYDKELRPDNRLSQSVYHGASSEGSLSPDTRSHASDVTDYSYPATPNHSLHPQPVTPSYAAGDVPPHGPASQAAEHEYRPPSASARHMALNRPQQPPPPPPPQAPEGSQASAPMAPADYGMLPAQIIEYYNPSGPPPPPPPPVIPSAQTAFVSPLQMPMQPPFPASASSTHAAPPHPPSTGLLVTAPPPPGPPPPPPGPPGPGSSLSSSPMHGPPVAEAKRQEPAQPPISDARSDLLAAIRMGIQLKKVQEQREQEAKREPVGNDVATILSRRIAVEYSDSDDDSEFDENDWSD” the value was “soluble”; for “AEHSHESTLVQAGERIHITAQGVSAIETIDTRTISDAWQYRHLVVQNRPLTEVLDELNRHRRGHILYDRAQLQGIDMAVVLPLDDTDRALQLLVDSLPMIRIRTLTPYLVLVDLAPA”, “not soluble”; for “AENDKPQYLSDWWHQSVNVVGSYHTRFGPQIRNDTYLEYEAFAKKDWFDFYGYADAPVFFGGNSDAKGIWNHGSPLFMEIEPRFSIDKLTNTDLSFGPFKEWYFANNYIYDMGRNKDGRQSTWYMGLGTDIDTGLPMSLSMNVYAKYQWQNYGAANENEWDGYRFKIKYFVPITDLWGGQLSYIGFTNFDWGSDLGDDSGNAINGIKTRTNNSIASSHILALNYDHWHYSVVARYWHDGGQWNDDAELNFGNGNFNVRSTGWGGYLVVGYNFHHHHHH”, “soluble”. For “AETEKEKQDWIEAVQQSIAETLSDYEVAEKIWFNESNRSCADCKAPDPDWASINLCVVICKKCAGQHRSLGPKDSKVRSLKMDASIWSNELIELFIVIGNKRANDFWAGNLQKDEELHMDSPVEKRKNFITQKYKEGKFRKTLLASLTKEELNKALCAAVVKPDVLETMALLFSGADVMCATGDPVHSTPYLLAKKAGQSLQMEFLYHNKFSDFPQHDIHSEGVLSQESSQSTFLCDFLYQAPSAASKLSSEKKLLEETNKKWCVLEGGFLSYYENDKSTTPNGTININEVICLAIHKEDFYLNTGPIFIFEIYLPSERVFLFGAETSQAQRKWTEAIAKHFVPLFAENLTEADYDLIGQLFYKDCHALDQWRKGWFAMDKSSLHFCLQMQEVQGDRMHLRRLQELTISTMVQNGEKLDVLLLVEKGRTLYIHGHTKLDFTVWHTAIEKAAGTDGNALQDQQLSKNDVPIIVNSCIAFVTQYGLGCKYIYQKNGDPLHISELLESFKKDARSFKLRAGKHQLEDVTAVLKSFLSDIDDALLTKELYPYWISALDTQDDKERIKKYGAFIRSLPGVNRATLAAIIEHLYRVQKCSEINHMNAHNLALVFSSCLFQTKGQTSEEVNVIEDLINNYVEIFEVKEDQVKQMDIENSFITKWKDTQVSQAGDLLIEVYVERKEPDCSIIIRISPVMEAEELTNDILAIKNIIPTKGDIWATFEVIENEELERPLHYKENVLEQVLRWSSLAEPGSAYLVVKRFLTADTIKHCSDRSTLGSIKEGILKIKEEPSKILSGNKFQDRYFVLRDGFLFLYKDVKSSKHDKMFSLSSMKFYRGVKKKMKPPTSWGLTAYSEKHHWHLCCDSSQTQTEWMTSIFIAQHEYDIWPPAGKERKRSITKNPKIGGLPLIPIQHEGNATLARKNIESARAELERLRLSEKCDKESVDSSLKERASMVAHCLEHKDDKLRNRPRKHRSFNCLEDTEPEAPLGQPKGHKGLKTLRKTEDRNSKATLDSDHKLPSRVIEELNVVLQRSRTLPKELQDEQILK” the value was “soluble”. For “AEVPLPQLRAYTVDASWLQPMAPLQIADHTWQIGTEDLTALLVQTPDGAVLLDGGMPQMASHLLDNMKARGVTPRDLRLILLSHAHADHAGPVAELKRRTGAKVAANAESAVLLARGGSDDLHFGDGITYPPANADRIVMDGEVITVGGIVFTAHFMAGHTPGSTAWTWTDTRNGKPVRIAYADSLSAPGYQLQGNPRYPHLIEDYRRSFATVRALPCDVLLTPHPGASNWDYAAGARAGAKALTCKAYADAAEQKFDGQLAKETAGAR”, the “soluble on expression in E. coli” value is “soluble”. For “AFKQLMFPFGMDSKMESGIVMPTTQFWNPIAINNVEAQNDFYSRENLAALKLLQKQAQEPEKLARLLEVYHESLGYNIVRRAEEAKVALSDQTAYCTGINLLSELIEVDVQRDEMIEAIESPKNKMTALVTEAVEQAGVKPDAIFMTGGSARSPILRDAVQTVLPNIPVVSGNYFGSVTAGLARWADVCFK” the value was “not soluble”. For “AFVQEPLPFDPGALEPYGMSAKTLEFHYGKHHKGYVDNLNKLTQDTELADKSLEDVIRTTYGDAAKVGIFNNAAQVWNHTFFWNSLKPGGGGVPTGDVAARINSAFGSYDEFKAQFKNAAATQFGSGWAWLVLEAGTLKVTKTANAENPLVHGQVPLLTIDVWEHAYYLDYQNRRPDFIDNFLNQLVNWDFVAKNLAAA” the value was “soluble”; for “AGHMADGELNVDSLITRLLEVRGCRPGKIVQMTEAEVRGLCIKSREIFLSQPILLELEAPLKICGDIHGQYTDLLRLFEYGGFPPEANYLFLGDYVDRGKQSLETICLLLAYKIKYPENFFLLRGNHECASINRIYGFYDECKRRFNIKLWKTFTDCFNCLPIAAIVDEKIFCCHGGLSPDLQSMEQIRRIMRPTDVPDTGLLCDLLWSDPDKDVQGWGENDRGVSFTFGADVVSKFLNRHDLDLICRAHQVVEDGYEFFAKRQLVTLFSAPNYCGEFDNAGGMMSVDETLMCSFQILKPSEKKAKYQYGGLNSGRPVTPPRTANPPKKR”, “soluble”. For “AGHMTSILSRNHVKVKGSGKASIMFAPGFGCDQSVWNAVAPAFEEDHRVILFDYVGSGHSDLRAYDLNRYQTLDGYAQDVLDVCEALDLKETVFVGHSVGALIGMLASIRRPELFSHLVMVGPSPCYLNDPPEYYGGFEEEQLLGLLEMMEKNYIGWATVFAATVLNQPDRPEIKEELESRFCSTDPVIARQFAKAAFFSDHREDLSKVTVPSLILQCADDIIAPATVGKYMHQHLPYSSLKQMEARGHCPHMSHPDETIQLIGDYLKAHV” the value was “soluble”; for “AGKPDWDWQPAPKNEALIAAVSAAAQEGLNAAYQIREKQARTTKLREVYAAVQAAMAEQAAQAGQPAPDSVGVDNILFDLEARIVRSQILNGEPRIDGRDTRTVRP”, “not soluble”.
